According to patent publication US20200407449A1:

Target: T1, mouse VISTA-Fc (mouse) (UniProt Q9D659)
T1 sequence (looked up): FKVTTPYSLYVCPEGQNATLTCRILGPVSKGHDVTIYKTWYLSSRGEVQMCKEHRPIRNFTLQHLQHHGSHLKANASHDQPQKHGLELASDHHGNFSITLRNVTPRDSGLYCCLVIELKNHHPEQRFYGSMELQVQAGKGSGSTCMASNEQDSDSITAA
Assay: monoclonal scFv phage ELISA, plate coated with 1 ug/ml VISTA-Fc, anti-M13-HRP

B1: 1A12 monoclonal scFv phage (scFv, V domains shown)
VH: QMQLVESGGGLVEPGRSLRLSCTTSGFSFHDYTMYWVRQVPGKGLEWVSLISWDGTITFYADPVRGRFTISRDNSKNSLYLQMNSLRAEDTAVYYCAKEDRYDYYSGAFDIWGQGTVVTVSS
VL: QSALTQPRSVSGSPGQSVTISCTGTSSDVGGYDYVSWYQQHPGKAPKLILNDVNKRPSGVPDRFSGSKSGNTASLTISGLQPDDEADYYCSSFAGSNTLRVFGGGTKLTVLG
Q: With B1 as the binder, how does the OD read?
A: Its OD is 0.08 OD.

B2: 3C5 monoclonal scFv phage (scFv, V domains shown)
VH: QVQLVQSGAEVKKPGASVKLSCKASGYTFSSYWMHWVRQAPGQRLEWMGEINPGNGHTNYNEKFKSRVTITVDKSASTAYMELSSLRSEDTAVYYCAKDIAYYDFWSGDAFDLWGQGTMVTVSS
VL: SYELTQPLSVSVSPGQTASITCSGDKLGNKYASWYQQKPGQSPVLVIYQDNKRPSGIPERFSGSNSGNTATLTISGTQATDEADYYCQTWDRSTGVFGTGTKVTVLG
Q: For B2, which OD is on record?
A: Its OD is 0.106 OD.
